One may read the EC50 as the concentration that produces a half-maximal response.

Assay [1] deals with hFc-fused hLRRC4B and FAM19A5 complex formation (Homo sapiens, UniProt Q7Z5A7). The assay can be described thus: Competitive inhibition assay (IC50), plate coated with LRRC4B(453-576, TT/TT)-hFc. It is filed as binding. To be noted: Table 14; LRRC4B(453-576, TT/TT)-hFc 100 nM coat; peptide 0.03-1000 nM; read-out: IC50 (nM), Inhibition on Complex Formulation between human LRRC4B protein and recombinant FAM19A5 protein (1 ng/mL). How it is done: The in silico analysis provided in Example 9 highlighted that certain T12 and L13 double mutants might be important in improving the binding affinity of the polypeptides of the present disclosure to the FAM19A5 protein. Therefore, the ability of both the wild-type FB-21 peptide (which is the same as the FB-20 peptide described herein except that the FB-21 peptide additionally contains an alanine at the C-terminus) and several FB-21 mutants were tested for their inhibitor effect on hFc-fused hLRRC4B and FAM19A5 complex formation. Briefly, plate was coated with 100 nM of LRRC4B(453-576, TT/TT)-hFc and then 1 ng/ml of rFAM19A5 was incubated at 37° C. in the presence of increasing concentrations of the different FB-21 peptide fragments (0.03, 0.1, 0.3, 1, 3, 10, 30, 100, 300 and 1000 nM). The LRRC4B-bound FAM19A5 levels were measured using HRP-conjugated 1-65 antibody.

The target of assay [2] is T1, FAM19A5 protein (Homo sapiens, UniProt Q7Z5A7). The assay can be described thus: Co-immunoprecipitation of FLAG-tagged LRRC4 family deletion constructs/fragments with recombinant FAM19A5 in HEK293 cells. It is filed as binding. To be noted: HEK293 cells expressing FLAG-tagged construct, recombinant FAM19A5 1 μM 30 minutes; IP anti-FLAG, blot anti-FAM19A5 (3-2). How it is done: To understand the interaction between FAM19A5 and members of the LRRC4 protein family, HEK293 cells were modified to express a FLAG-tagged member of the LRRC4 protein family, i.e., LRRC4C protein, LRRC4 protein, or LRRC4B protein. Then, the HEK293 cells or primary cortical neurons were treated with recombinant FAM19A5 protein (1 μM) for 30 minutes, and the binding between FAM19A5 protein and the different members of the LRRC4 protein family was assessed using both co-immunoprecipitation and immunofluorescence assays.
For the co-immunoprecipitation assay, cell lysates from the different FAM19A5-treated HEK293 cells were collected and immunoprecipitated with an anti-FLAG antibody, anti-FAM19A5 (1-65) antibody, or a human IgG antibody (control). Immunoprecipitated proteins were immunoblotted with anti-FLAG and anti-FAM19A5 (3-2) antibodies. For the immunofluorescence assay, the HEK293 cells treated with the recombinant FAM19A5 protein were immunostained with anti-FAM19A5 (3-2) (to detect FAM19A5 protein expression) and anti-FLAG antibodies (to detect member of the LRRC4 protein family). The primary cortical neurons treated with the recombinant FAM19A5 protein were immunostained with anti-FAM19A5 (3-2) and anti-LRRC4B antibodies. The nuclei were stained with Hoechst33342 (blue).
To determine the specific motif or domain of the LRRC4B protein that is responsible for the binding to a FAM19A5 protein, various FLAG-tagged LRRC4B deletion constructs were generated (see Table 6 below). HEK293 cells were transfected with the different deletion constructs and then treated with recombinant FAM19A5 protein as described in Example 1. Then, the cell lysates from the different HEK293 cells were immunoprecipitated with the anti-FLAG antibody. The immunoprecipitated proteins were immunoblotted with anti-FLAG and anti-FAM19A5 (3-2) antibodies.
As described in Example 2, all members of the LRRC4 protein family were capable of binding to FAM19A5 protein to varying degrees. Therefore, to compare the bindings domains, the amino acid sequences of the LRRC4B, LRRC4, and LRRC4C proteins were aligned. […] Therefore, to assess whether the corresponding positions of LRRC4 and LRRC4C were important in the binding of these proteins to FAM19A5 protein, cDNAs encoding either (i) LRRC4C protein fragment (amino acids 354-527 of SEQ ID NO: 3; SEQ ID NO: 66) or (ii) LRRC4 protein fragment (amino acids 353-527 of SEQ ID NO: 1; SEQ ID NO: 67) were constructed (see Table 7). HEK293 cells were transfected to express either of the protein fragments and then treated with recombinant FAM19A5 protein as described in Example 1. Then, the cell lysates from the different HEK293 cells were immunoprecipitated with the anti-FLAG antibody. The immunoprecipitated proteins were immunoblotted with anti-FLAG and anti-FAM19A5 (3-2) antibodies.
Target sequence in this assay (Q7Z5A7 44-132): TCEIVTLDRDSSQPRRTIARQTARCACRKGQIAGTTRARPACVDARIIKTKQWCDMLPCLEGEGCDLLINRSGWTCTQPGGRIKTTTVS

Assay [3] concerns the target T1, FAM19A5 protein. The assay can be described thus: competitive inhibition ELISA, 20 nM peptide, rFAM19A5 5 ng/mL; competitor: coated LRRC4B(36-576)-hFc. A general note: An ELISA detects its analyte on a solid surface through an enzyme-linked reagent.
The target of assay [4] is T1, FAM19A5 protein. The assay can be described thus: competitive inhibition ELISA, 20 nM peptide, rFAM19A5 1 ng/mL; competitor: coated LRRC4B(453-576)-hFc.
The target of assay [5] is T1, FAM19A5 protein. Description: ELISA binding of recombinant FAM19A5 to coated hFc-conjugated LRRC4 family ectodomains, fragments or synthetic peptides. To be noted: hFc-conjugated ectodomain coated 100 nM/well, FAM19A5 0.005-10 nM, 37° C. 1 hour. How it is done:
Next, to confirm the above co-immunoprecipitation results, an ELISA assay was used to measure the binding of the FAM19A5 protein to either the full-length ectodomain of members of LRRC4 protein family or various LRRC4B ectodomain protein fragments. Specifically, an ELISA plate was coated with one of the following LRRC4B ectodomain protein, which was conjugated to human Fc (100 nM/well): (1) full-length ectodomain of LRRC4 protein (amino acid residues 39-527 of SEQ ID NO: 1) (SEQ ID NO: 4); (2) full-length ectodomain of LRRC4B protein (amino acids 36-576 of SEQ ID NO: 2; i.e., construct #7 in Table 6) (SEQ ID NO: 5); (3) full-length ectodomain of LRRC4C protein (amino acids 45-527 of SEQ ID NO: 3) (SEQ ID NO: 6); (4) LRRC4B ectodomain fragment (amino acids 453-576 of SEQ ID NO: 2; i.e., construct #11 in Table 6) (SEQ ID NO: 7); (5) LRRC4B ectodomain fragment (amino acids 484-576 of SEQ ID NO: 2; i.e., construct #12 in Table 6) (SEQ ID NO: 8); (6) LRRC4B ectodomain fragment (amino acids 482-576 of SEQ ID NO: 2) (SEQ ID NO: 9); (7) LRRC4B ectodomain fragment (amino acids 482-497 of SEQ ID NO: 2) (SEQ ID NO: 10); and (8) LRRC4B ectodomain fragment (amino acids 498-576 of SEQ ID NO: 2; i.e., construct #13 in Table 6) (SEQ ID NO: 11). Then, recombinant FAM19A5 proteins (0.005, 0.01, 0.025, 0.05, 0.1, 0.25, 0.5, 1, 2.5, 5, and 10 nM) were added to the relevant wells, and the plates were incubated at 37° C. for 1 hour. Afterwards, the amount of LRRC4B-bound FAM19A5 protein was detected using HRP-conjugated anti-FAM19A5 (1-65) antibody.
As further confirmation, three synthetic polypeptides comprising amino acids 484-497 of SEQ ID NO: 2 (i.e., YTYFTTVTVETLET; SEQ ID NO: 65) were constructed: (1) FB-16 (GYTYFTTVTVETLETQ; SEQ ID NO: 17), (2) FB-20 ([…]; SEQ ID NO: 18), and (3) FB-28 ([…]; SEQ ID NO: 19). The peptides differed in their total length. The ability of these polypeptides to bind to recombinant FAM19A5 protein was assessed using an ELISA assay as described above.
Target sequence in this assay (Q7Z5A7 44-132): as above

Ends that are not written are not given here.

Take GYTYFTTVTVEPYETQPGEEA [FB-21 (P12Y13)]: the IC50 in assay [1] came to 39 nM.

As for GYTYFTTVTVEHFETQPGEEA [FB-21 (H12F13)], in assay [1], the IC50 was 9.8 nM.

For GYTYFTTVTVEIFETQPGEEA [FB-21 (I12F13)], the IC50 in assay [1] turned out to be 9.9 nM.

In the case of GYTYFTTVTVEQRETQPGEEA [FB-21 (Q12R13)], the IC50 in assay [1] was determined as 39.9 nM.

With GYTYFTTVTVEMRETQPGEEA [FB-21 (M12R13)], the IC50 in assay [1] turned out to be 47.9 nM.

B1: LRRC4C peptide fragment: LRRC4C protein fragment, amino acids 354-527 of SEQ ID NO: 3 (protein)
chain: VIVEPPADLNVTEGMAAELKCRASTSLTSVSWITPNGTVMTHGAYKVRIAVLSDGTLNFTNVTVQDTGMYTCMVSNSVGNTTASATLNVTAATTTPFSYFSTVTVETMEPSQDEARTTDNNVGPTPVVDWETTNVTTSLTPQSTRSTEKTFTIPVTDINSGIPGIDEVMKTTK
In the case of B1, in the assay with FAM19A5 protein [2], the “binding to FAM19A5 protein (co-immunoprecipitation)” value is “able to bind to the FAM19A5 protein”.

As to KNYTYFTTNKETQ [FB-m6dC], the results for the Inhibition rate (%) with FAM19A5 protein [3] and with FAM19A5 protein [4] were 14.9% and 5.5%, respectively.

Take KNFTTVTVETNKETQ [FB-m8dN]: the Inhibition rate (%) is 3.3% with FAM19A5 protein [3] and -1.1% with FAM19A5 protein [4].

Turning to KNYFTTVTVETNKETQ [FB-m9dN], the Inhibition rate (%) with FAM19A5 protein [3] is 2.5%; in the assay with FAM19A5 protein [4], -1.6%.

In the case of KNYTYFTTVTVETNKETQ [FB-m11dC], the Inhibition rate (%) in the assay with FAM19A5 protein [3] came out at 65%; in the assay with FAM19A5 protein [4] it was 30.4%.

B2: LRRC4 peptide fragment: LRRC4 protein fragment, amino acids 353-527 of SEQ ID NO: 1 (protein)
chain: PFIMDAPRDLNISEGRMAELKCRTPPMSSVKWLLPNGTVLSHASRHPRISVLNDGTLNFSHVLLSDTGVYTCMVTNVAGNSNASAYLNVSTAELNTSNYSFFTTVTVETTEISPEDTTRKYKPVPTTSTGYQPAYTTSTTVLIQTTRVPKQVAVPATDTTDKMQTSLDEVMKTTK
Regarding B2, the “binding to FAM19A5 protein (co-immunoprecipitation)” value with FAM19A5 protein [2] is given as “able to bind to the FAM19A5 protein”.

Take KNYTYFTTVTVENKETQ [FB-m10dC]: the Inhibition rate (%) was 62% with FAM19A5 protein [3] and 21.9% with FAM19A5 protein [4].

Consider KNTTVTVETNKETQ [FB-m7dN], for which the results for the Inhibition rate (%) with FAM19A5 protein [3] and with FAM19A5 protein [4] were 2% and -1.8%, respectively.

Consider KNYTYFTTVTVNKETQ [FB-m9dC], for which the Inhibition rate (%) with FAM19A5 protein [3] is 16.8%; with FAM19A5 protein [4] it was 2.7%.

For the molecule KNTYFTTVTVETNKETQ [FB-m10dN], the Inhibition rate (%) in the assay with FAM19A5 protein [3] amounted to 7.7%; in the assay with FAM19A5 protein [4], 0%.

With KNYTYFTTVTNKETQ [FB-m8dC], the values for the Inhibition rate (%) with FAM19A5 protein [3] and with FAM19A5 protein [4] were 5.1% and -0.9%, respectively.

In the case of KNYTYFTTVNKETQ [FB-m7dC], the Inhibition rate (%) was 4.4% in the assay with FAM19A5 protein [3] and 0.4% with FAM19A5 protein [4].

B3: LRRC4 full-length ectodomain: full-length ectodomain of LRRC4 protein, amino acid residues 39-527 of SEQ ID NO: 1, conjugated to human Fc (protein)
chain: ASAGPQNCPSVCSCSNQFSKVVCTRRGLSEVPQGIPSNTRYLNLMENNIQMIQADTFRHLHHLEVLQLGRNSIRQIEVGAFNGLASLNTLELFDNWLTVIPSGAFEYLSKLRELWLRNNPIESIPSYAFNRVPSLMRLDLGELKKLEYISEGAFEGLFNLKYLNLGMCNIKDMPNLTPLVGLEELEMSGNHFPEIRPGSFHGLSSLKKLWVMNSQVSLIERNAFDGLASLVELNLAHNNLSSLPHDLFTPLRYLVELHLHHNPWNCDCDILWLAWWLREYIPTNSTCCGRCHAPMHMRGRYLVEVDQASFQCSAPFIMDAPRDLNISEGRMAELKCRTPPMSSVKWLLPNGTVLSHASRHPRISVLNDGTLNFSHVLLSDTGVYTCMVTNVAGNSNASAYLNVSTAELNTSNYSFFTTVTVETTEISPEDTTRKYKPVPTTSTGYQPAYTTSTTVLIQTTRVPKQVAVPATDTTDKMQTSLDEVMKTTK
modifications: conjugated to human Fc
On to B3, for which, in the assay with FAM19A5 protein [5], the EC50 is 0.48 nM.

The values are drawn from patent US20240238445A1, “INHIBITORS AND USES THEREOF” (NEURACLE SCIENCE CO., LTD., priority 2021, published 2024).
